{"source": "patent US20180244760A1", "key": {"[1]": {"target": "Clostridium difficile toxin A (TcdA) (Clostridium difficile) (UniProt P16154)", "sequence (P16154 whole entry)": "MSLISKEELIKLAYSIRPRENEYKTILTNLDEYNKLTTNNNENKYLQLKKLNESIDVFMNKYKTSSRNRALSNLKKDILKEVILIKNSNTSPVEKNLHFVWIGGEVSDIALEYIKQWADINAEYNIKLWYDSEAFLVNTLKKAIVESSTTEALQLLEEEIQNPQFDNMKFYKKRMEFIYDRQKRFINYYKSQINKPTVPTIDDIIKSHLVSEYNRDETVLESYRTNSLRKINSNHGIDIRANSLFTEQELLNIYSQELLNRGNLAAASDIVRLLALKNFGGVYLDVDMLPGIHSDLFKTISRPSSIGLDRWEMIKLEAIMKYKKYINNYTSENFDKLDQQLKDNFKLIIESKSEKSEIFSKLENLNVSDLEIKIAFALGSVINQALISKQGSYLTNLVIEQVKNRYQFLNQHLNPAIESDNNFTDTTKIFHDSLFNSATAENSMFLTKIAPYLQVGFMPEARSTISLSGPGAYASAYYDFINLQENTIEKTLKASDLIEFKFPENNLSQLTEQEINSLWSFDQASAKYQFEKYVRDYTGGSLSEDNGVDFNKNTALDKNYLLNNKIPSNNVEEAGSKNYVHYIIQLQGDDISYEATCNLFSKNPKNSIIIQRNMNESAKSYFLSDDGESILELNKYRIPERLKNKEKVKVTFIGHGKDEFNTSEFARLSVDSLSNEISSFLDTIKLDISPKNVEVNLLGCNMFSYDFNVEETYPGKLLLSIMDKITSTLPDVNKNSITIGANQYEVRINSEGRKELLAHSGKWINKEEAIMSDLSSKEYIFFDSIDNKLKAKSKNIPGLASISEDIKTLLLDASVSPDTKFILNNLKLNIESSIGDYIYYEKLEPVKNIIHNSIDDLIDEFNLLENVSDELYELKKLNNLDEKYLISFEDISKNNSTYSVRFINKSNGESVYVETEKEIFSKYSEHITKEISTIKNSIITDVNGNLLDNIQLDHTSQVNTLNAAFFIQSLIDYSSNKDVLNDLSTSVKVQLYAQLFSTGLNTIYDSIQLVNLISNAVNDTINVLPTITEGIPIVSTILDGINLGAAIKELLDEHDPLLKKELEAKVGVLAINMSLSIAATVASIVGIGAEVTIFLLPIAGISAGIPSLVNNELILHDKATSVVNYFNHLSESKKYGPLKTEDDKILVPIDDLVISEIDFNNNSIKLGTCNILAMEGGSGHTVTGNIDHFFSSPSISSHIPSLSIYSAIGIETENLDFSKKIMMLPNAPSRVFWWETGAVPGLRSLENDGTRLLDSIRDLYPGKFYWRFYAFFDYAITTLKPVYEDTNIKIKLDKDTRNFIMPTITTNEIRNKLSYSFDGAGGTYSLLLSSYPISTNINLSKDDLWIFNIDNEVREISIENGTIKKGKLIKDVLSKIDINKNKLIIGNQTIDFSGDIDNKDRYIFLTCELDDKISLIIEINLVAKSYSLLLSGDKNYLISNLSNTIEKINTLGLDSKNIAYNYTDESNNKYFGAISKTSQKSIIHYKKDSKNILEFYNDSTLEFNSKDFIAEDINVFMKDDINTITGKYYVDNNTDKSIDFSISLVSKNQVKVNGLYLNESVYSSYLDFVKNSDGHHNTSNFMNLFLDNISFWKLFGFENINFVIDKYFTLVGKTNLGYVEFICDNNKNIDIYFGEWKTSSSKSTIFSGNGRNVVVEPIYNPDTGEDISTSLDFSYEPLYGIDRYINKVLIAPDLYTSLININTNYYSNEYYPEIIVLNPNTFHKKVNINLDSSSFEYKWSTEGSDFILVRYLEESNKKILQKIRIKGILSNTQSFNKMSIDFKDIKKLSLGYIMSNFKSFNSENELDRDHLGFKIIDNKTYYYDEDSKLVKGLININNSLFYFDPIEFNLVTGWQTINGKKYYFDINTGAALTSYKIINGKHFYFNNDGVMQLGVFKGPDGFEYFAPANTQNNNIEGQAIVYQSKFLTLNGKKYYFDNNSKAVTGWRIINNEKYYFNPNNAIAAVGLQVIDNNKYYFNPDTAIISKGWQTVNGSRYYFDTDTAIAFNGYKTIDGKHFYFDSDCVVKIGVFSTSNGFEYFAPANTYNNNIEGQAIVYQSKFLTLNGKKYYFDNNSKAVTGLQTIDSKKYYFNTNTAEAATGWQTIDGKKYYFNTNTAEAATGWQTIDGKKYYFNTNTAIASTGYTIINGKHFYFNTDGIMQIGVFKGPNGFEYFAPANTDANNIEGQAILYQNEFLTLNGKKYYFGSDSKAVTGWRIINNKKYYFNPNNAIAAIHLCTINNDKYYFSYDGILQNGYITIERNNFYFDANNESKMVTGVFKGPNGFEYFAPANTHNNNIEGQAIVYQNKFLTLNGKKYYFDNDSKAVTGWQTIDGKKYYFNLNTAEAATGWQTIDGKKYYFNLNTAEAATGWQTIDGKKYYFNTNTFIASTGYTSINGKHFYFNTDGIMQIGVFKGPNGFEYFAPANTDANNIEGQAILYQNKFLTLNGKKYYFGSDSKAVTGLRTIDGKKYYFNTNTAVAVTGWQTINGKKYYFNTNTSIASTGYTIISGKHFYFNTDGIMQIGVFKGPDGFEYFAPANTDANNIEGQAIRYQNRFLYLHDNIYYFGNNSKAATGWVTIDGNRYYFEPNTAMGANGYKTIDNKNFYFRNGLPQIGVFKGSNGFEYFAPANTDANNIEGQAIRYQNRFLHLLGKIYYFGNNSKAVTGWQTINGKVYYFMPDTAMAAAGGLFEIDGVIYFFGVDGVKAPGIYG", "assay": "ELISA, plate coated with 1 ug/ml TcdA"}, "[2]": {"target": "Clostridium difficile toxin A (TcdA) (Clostridium difficile) (UniProt P16154)", "assay": "cell-based or functional assay"}}}
{"substance": "Merck anti-TcdA human monoclonal antibody", "values": [{"measurement": "EC50 (read off the curve)", "setting": "[1]", "result": 2, "unit": "ng/mL"}, {"measurement": "minimal dose of antibody protecting Vero cells from TcdA-induced cell rounding", "setting": "[2]", "result": "> 10", "unit": "nM"}]}
